Earlier results, collected in article doi:10.1101/2022.08.17.503475.

Biological target: Glu14 (UniProt position 14, GAILAEVIGTT)
Assay: NMR
Conditions: TPP+-bound; alternating access in slow exchange throughout the tested pH range

In the case of “EmrE (multidrug transporter EmrE, small multidrug resistance family) (Escherichia coli)”, the pKa is given as 6.8 ± 0.1.
